For assay [1], the target named is T1, activine type IIB receptor (ActRIIB) extracellular domain.
T1 sequence (Q13705 19-137, species assumed, looked up): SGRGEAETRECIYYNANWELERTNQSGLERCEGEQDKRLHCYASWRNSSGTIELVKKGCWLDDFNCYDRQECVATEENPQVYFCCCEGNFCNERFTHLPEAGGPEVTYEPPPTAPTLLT
The assay is described as follows: SPR, BIAcore 2000; analyte Ala-BMP-2, ligand ActRIIBecd; freeze-dried preparation preserved at 25 ± 2° C., relative humidity 60 ± 5%, for 3 months.

Assay [2] shares this target. Briefly: SPR, BIAcore 2000; analyte Ala-BMP-2, ligand ActRIIBecd; freeze-dried preparation preserved at 5 ± 3° C. for 3 months. (In general: In SPR one partner is held on a chip, and binding of the other changes the refractive index at the surface.)
The target is the same in assay [3]. The assay is described as follows: SPR, BIAcore 2000; analyte Ala-BMP-2, ligand ActRIIBecd; redissolved freeze-dried preparation at start of test.
For assay [4] the target is unchanged. Briefly: SPR, BIAcore 2000; analyte Ala-BMP-2, ligand ActRIIBecd; freeze-dried preparation preserved at 40 ± 2° C., relative humidity 75 ± 5%, for 3 months.

B1: active type human bone morphogenetic protein-2 homodimer added with an alanine residue to the N-terminus (ligand)
chain: AQAKHKQRKRLKSSCKRHPLYVDFSDVGWNDWIVAPPGYHAFYCHGECPFPLADHLNSTNHAIVQTLVNSVNSKIPKACCVPTELSAISMLYLDENEKVVLKNYQDMVVEGCGCR
As to B1, the Biacore assay, relative value to provisional reference substance of Ala-BMP-2 as 100% in assay [1] is 98.9%; in assay [2], 100%; in assay [3], 98.2%; in assay [4] it was 97.7%.

Source of the values: patent US20140148387A1.
